In US20250026813A1 (published 2025):

B1: YANG-1101 (antibody, V domains shown)
VH: QLQLQESGPGLVKPSETLSLTCTVSGGSISSSSYYWGWIRQPPGKGLEWIGSIYYSGSIYYNPSLKSRVTISVDTSKNQFSLKLSSVTAADTAVYYCASWFGEFLKADAFDIWGQGTMVTVSS
VL: QSALTQPASVSGSPGQSITISCTGTSSDVGGYSYVSWYQQHPGKAPKLMIYDVSKRPSGVSNRFSGSKSGNTASLTISGLQAEDEADYYCCSYAGGSTFVVFGGGTKLTVL
B2: YANG-1102 (antibody, V domains shown)
VH: QVQLQESGPGLVKPSGTLSLTCAVSGGSISTTNWWSWVRQSPGRGLEWIGEIFHIGYTNYNPSLKSRVTISVDKSKNQFSLKLNSVTVADTAVYYCARRVVMDTAMAHFDCWGQGTLVTVSS
VL: QSVLTQPPSVSGAPGQRVTISCTGSSSNIGAGYDVHWYQHLPGTAPKLLIYININRPSGVPDRFSGSKSGTSASLVIAGLQAEDGADYYCQSYDSSLSGWVFGGGTRLTVL
B3: YANG-1105 (antibody, V domains shown)
VH: EVQVVESGGGLIQPGGSLRLSCAASGITVSRNYMNWVRQAPGKGLEWVSVIYSGGSTFYADSVKGRFTISRDNSKNTLYLQMNSLRADDTGVYYCAREGYGMDVWGQGTTVTVSS
VL: DIQLTQSPSFLSASVGDRVTITCWASQGISSYLAWYQQKPGKAPKLLIYSASTLQSGVPSRFSGSGSGTEFTLTINSLQPEDFATYYCQQLNSHPCSFGQGTKLEIK
B4: YANG-1103 (antibody, V domains shown)
VH: EVQMVESGGGLIQPGGSLRLSCAASGLTVSSNYMSWVRQAPGKGLEWVSVIYSGGSTFYADSVKDRFTISRDNSKNTLYLQMNSLRAEDTAVYYCARENWNYVFDCWGQGTLVTVSS
VL: DIQLTQSPSFLSASVGDRVTITCWASQGISSYLAWYQQKPGKAPKLLIYAASTLQSGVPSRFSGSGSGTEFTLTISSLQPEDFATYYCQQLNSHPIIFGQGTRLEIK
B5: YANG-1107 (antibody, V domains shown)
VH: EVQMVESGGGLIQSGGSLRLSCAASGLSVSSNYMSWVRQAPGKGLEWVAVIYSGGSIFYADSVKDRFTISRDNSKNTLYLQMNSLRAEDTAVYYCARENWNYVFDCWGQGTLVTVSS
VL: DIQLTQSPSFLSASVGDRVTITCWASQGISTYLAWYQQKPGKAPKLLIYAASTLQSGVPSRFSGSGSGTEFTLTISSLQPEDFATYYCQQLSSHPIIFGQGTRLEIK
B6: YANG-1106 (antibody, V domains shown)
VH: EVQLVESGGGLIQPGGSLRLSCAASEFIVSRNYMSWVRQAPGKGLEWVSVIYSGGSTFYADSVRGRFTISRDNSKNTLYLQMNSLRAEDTAVYYCARDYGDQYFDYWGQGTLVTVSS
VL: EMVMTQSPATLSVSPGEKATLSCRASQTVSTNLAWYQQKPGQSPRLLIYGASTRATGIPARFSGSGSGTEFTLTISSLQSEDFAIYYCQQYVDWPRTFGQGTTVEIK
B7: IMPI-055 (antibody, V domains shown)
VH: QVQLVQSGAEVKKPGASVKVSCKASGYTFTSYDINWVRQATGQGLEWMGWMNPNSGNTGYAQKFQGRVTMTRDTSINTAYMELSSLRSEDTAVYFCARGGRYCSDVTCYSGEPFDYWGQGTLVTVSS
VL: EIMLTQSPDFQSVTPKEKVTITCRASQSIGSSLHWYQQKPDQSPKLLIKFASQSISGVPSRFSGSGSGTDFTLTINSLEAEDAAAYYCHQSSSLPHTFGPGTKVEIK
B8: IMPI-059 (antibody, V domains shown)
VH: EVQLVESGGGLIQPGGSLRLSCAASGFTVSSIYMSWVRQAPGKGLEWVSIIYSRGSTDYADSVKGRFTISRDISKNTLYLQMNSLRAEDTAVYYCARDGTMVRGVHAFDIWGQGTMVTVSS
VL: DIQMTQSPPSLSASIGDRVTITCQASQDISNYLNWYQQKPGKAPKLLIYDASNLETGVPSRFSGSGSGTDFTLTISNLQPEDIVTYYCQQYDNLPSSFGQGTKLEIK
B9: IMPI-054 (antibody, V domains shown)
VH: EVQLVESGGGLIQPGGSLRLSCAASGLTVSSNYMSWVRQAPGKGLEWVSIIYSGGSTYYADSVKGRFTISRDNSKNTLYLQMNSLRAEDTAVYYCARLGGYYYYGMDVWGQGTTVTVSS
VL: DIQMTQSPSSLSASVGERVTITCQASQDIRNYLNWYQKKPGKAPKLLIYDSSNLETGVPSRFSGSGSGTDFTFTISSLQPEDIATYYCQQYDNLPITFGQGTRLEIK
B10: IMPI-042 (antibody, V domains shown)
VH: EVQLVESGGGLIQPGGSLRLSCAASGLTVSSNYMSWVRQAPGKGLEWVSIIYSGGSTYYADSVKGRFTISRDNSKNTLYLQMNSLRAEDTAVYYCARLGGYYYYGMDVWGQGTTVTVSS
VL: DIQMTQSPSSLSASVGERVTITCQASQDIRNYLNWYQKKPGKAPKLLIYDSSNLETGVPSRFSGGGSGTDFTFTISSLQPEDIATYYCQQYDNLPITFGQGTRLEIK
B11: IMPI-005 (antibody, V domains shown)
VH: EVQLVESGGGLIQPGGSLRLSCAASGFTVSSNYMNWVRQAPGKGLEWVSVIYSGGSTYYADSVKGRFTISRDNSKNTLFLQMNSLRAEDSAVYYCARDLGPYGVDVWGQGTTVTVSS
VL: DIQLTQSPSFLSASVGDRVTITCWASQGISSYLAWYQQKPGKAPKLLIYAASTLQSGVPSRFSGSGSGTEFTLTISSLQPEDFATYYCQELNSYPLTFGQGTRLEIK
B12: IMPI-047 (antibody, V domains shown)
VH: EVQLVESGGGLIQPGGSLRLSCAASGFTVSSNYMNWVRQAPGKGLEWVSVIYSGGSTYYADSVKGRFTISRDNSKNTLYLQMNSLRTEDTAVYYCARDLVAYGMDVWGQGTTVTVSS
VL: DIQLTQSPSFLSASVGDRVTITCWASQGISSYLAWYQQKPGKAPKVLIYAASTLQSGVPSRFSGSGSGTEFTLTISSLQPEDFATYYCQLLNSNPLTFGGGTKVEIK
B13: IMPI-017 (antibody, V domains shown)
VH: EVQLVESGGGLIQPGGSLRLSCAAAGLTVSSNYMNWVRQVPGKGLEWVSVIYSGGSTYYADSVKGRFTISRDNSKNTLYLQMNSLRAEDTAVYYCARDLGTLGMDVWGQGTTVTVSS
VL: DIQLTQSPSFLSASVGDRVTITCWASQGISTYLAWYQQKPGKAPKLLIYAASTLQSGVPSRFSGSGSGTEFTLTISSLQPEDFATYYCQQLNSYLPTFGQGTKVEIK
B14: IMPI-037 (antibody, V domains shown)
VH: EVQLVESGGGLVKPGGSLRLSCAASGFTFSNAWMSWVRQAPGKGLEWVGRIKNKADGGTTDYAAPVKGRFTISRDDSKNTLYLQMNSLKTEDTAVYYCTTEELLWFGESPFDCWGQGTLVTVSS
VL: DIQLTQSPSFLSASVGDRVTITCWASQGINSYLAWYQQKPGKAPKLLIYAASTLQSGVPSRFSGSGSGTEFTLTISSLQPEDFTTYYCQQFNDYPRTFGPGTKVEIK
B15: IMPI-060 (antibody, V domains shown)
VH: EVQLVESGGGLIQPGGSLRLSCAASGVTVSSNYMSWVRQAPGKGLEWVSVIYSGGSTFYADSVKGRFTISRDNSKNTLYLQMNSLRAEDTAVYYCARDLSYYGMDVWGQGTTVTVSS
VL: DIQLTQSPSFLSASVGDRVTITCWASQGISSYLAWYQQKPGKAPKLLIYAASTLQSGVPSKFSGSGSGTEFTLTISSLQPEDFATYYCQQLNSYPSSFGQGTKLEIK
B16: IMPI-021 (antibody, V domains shown)
VH: EVQLVESGGGLIQPGGSLRLSCAASGVTVSSNYMSWVRQAPGKGLEWVSVIYSGGSTFYADSVKGRFTISRDNSKNTLYLQMNSLRAEDTAVYYCARDLSYYGMDVWGQGTTVTVSS
VL: DIQLTQSPSFLSASVGDRVTITCWASQGISSYLAWYQQKPGKAPKLLIYAASTLQSGVPSKFSGSGSGTEFTLTISSLQPEDFATYYCQQLNSYPCSFGQGTKLEIK
B17: IMPI-032 (antibody, V domains shown)
VH: QVQLQESGPGLVKPSGTLSLTCAVSGGSISSNKWWSWVRQPPGKGLEWIGEIDHSGSTMYNPSLKSRVTISVDKSKNQFSLKLNSVTAADTAVYYCTGEGYNWNYWGQGTRVTVSS
VL: DVVMTQSPLSLPVTLGQTASISCRSSQSLLYTDGNTYLSWFQQRPGQSPRRLIYKVSKWESGVPDRFSGSGSGTDFTLKISRVEAEDVGIYYCMQGTHWPLTFGGGTKVEIK
B18: IMPI-063 (antibody, V domains shown)
VH: EVQLVESGGGVVRPGGSLRLSCAASGFTFDDYGMSWVRQAPGKGLEWVSGIYWNGGSTGYADSVKGRFTISRDNAKNSLYLQMNSLRAEDMALYYCARGVGATDYWGQGTLVTVSS
VL: EIVLTQSPGTLSLSSGERATLACRASESVRGSFLAWYQQKPGQAPRLLIYGASRRATGIPDRFSGSGSGTDFTLTISRLEPEDFAVYYCQQYGNSPMCSFGQGTKLEIK
B19: IMPI-027 (antibody, V domains shown)
VH: QVQLQESGPGLVKPSQTLSLTCTVSGGSISSYGYYWNWIRQHPGKGLEWIGYIYYSGSTYYNPSLKSRVTISVDTSKNQLSLRLNSVSAADTAVYYCARDFGGNSNYFDYWGQGTLVTVSS
VL: AIQLTQSPSSLSASVGDRVTITCRTSQGISSALAWYQQKPGKAPKLLIYDASSLESGVPSRFSGSGSGTDFTLTISSLQPEDFATYYCQQFNSYPLTFGGGTKVEIK
B20: IMPI-022 (antibody, V domains shown)
VH: EVQLVESGGGLVQPGRSLRLSCAASGFTFDDYAMHWVRQAPGKGLEWVSGITWNSGSIGYADSVKGRFTISRDNAKNSLYLHMNSLRVEDTALYYCAKDLQGDYYYYGVDVWGQGTTVTVSS
VL: AIQLTQSPSSLSASVGDRVTITCRASQGISSALAWYQQKPGKAPKLLLYDASSLVSGVPSRFSGSRSGTDFTLTISSLQPEDFATYYCQQFISYPLTFGGGTRVEIK
B21: IMPI-033 (antibody, V domains shown)
VH: QVQLQESGPGLVKPSQTLSLTCTVSGGSISSYGYYWSWIRQHPGKGLEWIGYIYYSGSTYYNPSLKSRVTMSVDTSKNQLSLRLNSVSAADTAVYYCARDFGGNSNYFDYWGQGTLVTVSS
VL: AIQLTQSPSSLSASVGDRVTITCRASQGISSALAWYQQKPGKAPNLLIYDASSLESGVPSRFSGSGSGTDFTLTISSLQPEDFATYYCQQFNSSPLTFGGGTKVEIK
B22: IMPI-006 (antibody, V domains shown)
VH: QLQLQESGPGLVKPSETLSLTCTVSGGSISNSNYYWGWIRQPPGKGLEWIGSIYYSGRTYYNPSLKSRVTISVDTSKNQFSLKLSSVTAADTAVYYCARMGLLWFGEFYGMDVWGQGTTVTVSS
VL: DIQMTQSPSSLSASVGDRVTITCRASQGISSWLAWYQQKPEKAPKSLIYDASSLQRGVPSRFSGSGSGTDFTLTISSLQPEDFASYYCQQYNSYPLTFGGGTRVEIK

The binders below were run against T1, RBD domain of the spike protein of SARS-CoV-2 virus (Acro Biosystems SPD-C52H3) (SARS-CoV-2, UniProt P0DTC2 319-537) (assay: Affinity (SPR) by Octet; antigen not named, taken from the epitope column).
T1 construct: domain: RBD domain

Binder	Kd
B1	< 100 pM
B2	< 100 pM
B3	< 100 pM
B4	< 100 pM
B5	< 100 pM
B6	< 100 pM

Each binder was assayed against T2, S2 subunit of the SARS-CoV-2 spike protein (Sino Biological 40590-V08B), His tag (SARS-CoV-2, UniProt P0DTC2 686-1213) (assay: not given).
T2 construct: domain: S2 subunit

Binder	HTRF deltaF
B7	-10.3 deltaF
B8	-2.7 deltaF
B9	15.8 deltaF
B10	1.6 deltaF
B11	-1.8 deltaF
B12	4.3 deltaF
B13	13 deltaF
B14	-2 deltaF
B15	6 deltaF
B16	-0.3 deltaF
B17	-8 deltaF
B18	411 deltaF
B19	7.5 deltaF
B20	-9.7 deltaF
B21	-3.6 deltaF
B22	40.7 deltaF
